Numbering of substitutions follows the chain as printed.
T1: cynomolgus monkey FcγRIIa1 extracellular domain, C-terminal His-tag (cynomolgus monkey)
T1 construct: also called cyno FcγRIIa1; cynoFcgRIIa1; not shown: His-tag added to C-terminus
T1 chain: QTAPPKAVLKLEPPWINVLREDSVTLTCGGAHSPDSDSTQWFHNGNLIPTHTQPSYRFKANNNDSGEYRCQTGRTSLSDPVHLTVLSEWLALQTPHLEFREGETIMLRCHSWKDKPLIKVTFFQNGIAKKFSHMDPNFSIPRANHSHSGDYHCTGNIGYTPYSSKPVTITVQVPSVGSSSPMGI

T2: human FcγRIIb extracellular domain, C-terminal His-tag (human, UniProt P31994 43-217)
T2 construct: also called FcgRIIb (human); not shown: His-tag added to C-terminus
T2 sequence: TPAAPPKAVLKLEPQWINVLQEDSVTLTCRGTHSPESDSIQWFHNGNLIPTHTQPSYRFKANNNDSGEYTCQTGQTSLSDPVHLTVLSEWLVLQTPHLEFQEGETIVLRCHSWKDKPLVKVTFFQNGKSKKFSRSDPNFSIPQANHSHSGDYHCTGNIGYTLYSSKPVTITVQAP

T3: cynomolgus monkey FcγRIIa3 extracellular domain, C-terminal His-tag (cynomolgus monkey)
T3 construct: also called cyno FcγRIIa3; cynoFcgRIIa3; not shown: His-tag added to C-terminus
T3 chain: T1 chain with P95T, T121A, A128S, H133P, D135N

T4: cynomolgus monkey FcγRIIa2 extracellular domain, C-terminal His-tag (cynomolgus monkey)
T4 construct: also called cyno FcγRIIa2; cynoFcgRIIa2; not shown: His-tag added to C-terminus
T4 chain: T1 chain with P95T, T121A, I127K, A128S, K130N, D135N, R142Q

T5: cynomolgus monkey FcγRIIb extracellular domain, C-terminal His-tag (cynomolgus monkey)
T5 construct: also called cyno FcγRIIb; cynoFcγRIIb; not shown: His-tag added to C-terminus
T5 chain: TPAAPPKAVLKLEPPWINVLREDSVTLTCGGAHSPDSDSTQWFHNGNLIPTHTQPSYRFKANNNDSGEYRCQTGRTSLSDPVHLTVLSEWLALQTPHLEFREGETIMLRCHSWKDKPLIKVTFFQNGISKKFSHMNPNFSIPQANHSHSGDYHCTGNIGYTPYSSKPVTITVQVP

T6: human FcγRIIaR extracellular domain, C-terminal His-tag (human, UniProt P12318 34-217)
T6 construct: also called human FcγRIIa (type R); FcgRIIaR; not shown: His-tag added to C-terminus
T6 chain: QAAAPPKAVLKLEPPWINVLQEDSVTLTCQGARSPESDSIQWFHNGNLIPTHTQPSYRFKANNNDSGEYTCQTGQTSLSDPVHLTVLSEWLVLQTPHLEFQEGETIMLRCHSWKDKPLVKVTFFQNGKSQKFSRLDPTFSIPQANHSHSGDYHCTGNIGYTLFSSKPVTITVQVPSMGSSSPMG

B1: M103205H795-MY209/M103202L889-SK1 (antibody, human IgG1, kappa)
heavy: QVTLKESGPVLVKPTETLTLTCTVSGIDLSHDDISWVRQAPGKGLEWVGIISYAGSTYYASWAKGRLTISKDTSKNQVVLTMTNMDPVDTATYYCARGVPAYSHGGDLWGQGTLVTVSSASTKGPSVFPLAPSSKSTSGGTAALGCLVKDYFPEPVTVSWNSGALTSGVHTFPAVLQSSGLYSLSSVVTVPSSSLGTQTYICNVNHKPSNTKVDKKVEPKSCDKTHTCPPCPAPELLNGPSVFLFPPKPKDTLMISRTPEVTCVVVDVSDEDPEVKFNWYVDGVEVHNAKTKPREELYNSTYRVVSVLTVLHQDWLNGKEYKCKVSNTALPKPIEKTISKAKGQPREPQVYTLPPSREEMTKNQVSLTCLVKGFYPSDIAVEWESNGQPENNYKTTPPVLDSDGSFFLYSKLTVDKSRWQQGNVFSCSVMHEALHNHYTQKSLSLSP
light: DIVMTQSPATLSLSPGERATLSCTSSQSVYHANWLSWFQQKPGQPPKLLIYWASTLAYGVPSRFSGSGSGTDFTLTISSLQPEDAATYYCAGGYGGGRYAFGQGTKVEIKRTVAAPSVFIFPPSDEQLKSGTASVVCLLNNFYPREAKVQWKVDNALQSGNSQESVTEQDSKDSTYSLSSTLTLSKADYEKHKVYACEVTHQGLSSPVTKSFNRGEC
B2: M103205H795-MY278/M103202L889-SK1 (antibody, human IgG1, kappa)
heavy: B1 heavy with N238M, T328K
light: B1 light
B3: M103205H795-MY281/M103202L889-SK1 (antibody, human IgG1, kappa)
heavy: B1 heavy with N238Q, T328K
light: B1 light
B4: M103205H795-MY227/M103202L889-SK1 (antibody, human IgG1, kappa)
heavy: B1 heavy with N238G, G239Y, L297Q, T328K, P398K
light: B1 light
B5: M103205H795-MY269/M103202L889-SK1 (antibody, human IgG1, kappa)
heavy: B1 heavy with N238M, L297Q, T328K, P398K
light: B1 light
B6: M103205H795-MY280/M103202L889-SK1 (antibody, human IgG1, kappa)
heavy: B1 heavy with N238V, T328K
light: B1 light
B7: M103205H795-MY213/M103202L889-SK1 (antibody, human IgG1, kappa)
heavy: B1 heavy with L297Q, T328K, P398K
light: B1 light
B8: M103205H795-MY219/M103202L889-SK1 (antibody, human IgG1, kappa)
heavy: B1 heavy with N238G, G239Y, L297Q, T328K
light: B1 light
B9: M103205H795-MY271/M103202L889-SK1 (antibody, human IgG1, kappa)
heavy: B1 heavy with N238V, L297Q, T328K, P398K
light: B1 light
B10: M103205H795-MY276/M103202L889-SK1 (antibody, human IgG1, kappa)
heavy: B1 heavy with N238I, L297Q, T328K, P398K
light: B1 light
B11: M103205H795-MY273/M103202L889-SK1 (antibody, human IgG1, kappa)
heavy: B1 heavy with N238L, L297Q, T328K, P398K
light: B1 light
B12: M103205H795-MY270/M103202L889-SK1 (antibody, human IgG1, kappa)
heavy: B1 heavy with N238H, L297Q, T328K, P398K
light: B1 light
B13: M103205H795-MY274/M103202L889-SK1 (antibody, human IgG1, kappa)
heavy: B1 heavy with N238T, L297Q, T328K, P398K
light: B1 light
B14: M103205H795-MY242/M103202L889-SK1 (antibody, human IgG1, kappa)
heavy: B1 heavy with N238G, P240I, L297Q, T328K, P398K
light: B1 light
B15: M103205H795-MY272/M103202L889-SK1 (antibody, human IgG1, kappa)
heavy: B1 heavy with N238Q, L297Q, T328K, P398K
light: B1 light
B16: M103205H795-MY279/M103202L889-SK1 (antibody, human IgG1, kappa)
heavy: B1 heavy with N238H, T328K
light: B1 light

Experiments:
Assay in all cases: SPR (Biacore), antibody captured, FcgR analyte, 25 C
[1] = molecular target: T1, cynomolgus monkey FcγRIIa1 …
[2] = molecular target: T7, cynomolgus monkey FcγRIIIaS extracellular domain, C-terminal His-tag (cynomolgus monkey, UniProt A3RFZ7 21-206 (rhesus entry))
T7 construct: also called cyno FcγRIIIaS; cynoFcγRIIIaS; not shown: His-tag added to C-terminus
T7 sequence (A3RFZ7 21-206): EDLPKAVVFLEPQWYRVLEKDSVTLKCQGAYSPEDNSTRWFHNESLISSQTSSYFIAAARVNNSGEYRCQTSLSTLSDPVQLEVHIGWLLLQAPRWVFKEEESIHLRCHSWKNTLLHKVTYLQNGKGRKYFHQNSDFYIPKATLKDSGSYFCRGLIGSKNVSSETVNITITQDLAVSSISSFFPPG

[3] = molecular target: T2, human FcγRIIb extracellular domain, …
[4] = molecular target: T8, human FcγRIIIaV extracellular domain, C-terminal His-tag (human, UniProt P08637 17-208)
T8 construct: also called FcgRIIIaV; not shown: His-tag added to C-terminus
T8 sequence (P08637 17-208 F176V): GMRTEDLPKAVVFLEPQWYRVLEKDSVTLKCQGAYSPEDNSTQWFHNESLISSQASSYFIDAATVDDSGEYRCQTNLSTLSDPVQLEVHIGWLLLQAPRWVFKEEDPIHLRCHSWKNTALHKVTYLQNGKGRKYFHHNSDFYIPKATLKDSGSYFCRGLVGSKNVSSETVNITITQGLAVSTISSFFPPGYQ

[5] = molecular target: T3, cynomolgus monkey FcγRIIa3 …
[6] = molecular target: T4, cynomolgus monkey FcγRIIa2 …
[7] = molecular target: T5, cynomolgus monkey FcγRIIb extracellular …
[8] = molecular target: T6, human FcγRIIaR extracellular domain, …

Binder	Kd [1] [nM]	Kd [2] [nM]	Kd [3] [nM]	Kd [4] [µM]	Kd [5] [µM]	Kd [6] [nM]	Kd [7] [nM]	Kd [8] [nM]
B1	630	2200	500	14	1.9	630	190	830
B2	3000	740	4400	3.4	10	3600	1300	1300
B3	1900	740	1800	2.1	9.1	2500	620	390
B4	1900	3900	130	18	2.5	2500	510	62
B5	2300	220	2100	1.1	6.4	2600	350	720
B6	1000	1800	2900	4.4	4.6	1200	330	450
B7	530	1900	360	11	1.3	520	160	630
B8	3500	6200	340	91	5.5	4000	1300	160
B9	760	870	2100	2.3	3.1	700	190	2300
B10	1100	1200	2400	5.7	4.3	1300	310	250
B11	3700	1700	3000	9.7	11	3500	1200	1000
B12	1800	1100	2500	3.7	2.5	2300	530	370
B13	830	670	950	2.5	2	800	230	170
B14	4500	990	1900	9.2	5.9	4200	1100	690
B15	1900	290	1200	0.87	6.2	1900	430	250
B16	2800	2400	4600	7	4.7	3300	910	720
